The target of assay [1] is T1, human calcitonin receptor (human, UniProt P30988 25-474).
T1 construct: whole, on cells; Membranes from stably transfected BHK cells; also called hCTR; hCT
T1 sequence (looked up): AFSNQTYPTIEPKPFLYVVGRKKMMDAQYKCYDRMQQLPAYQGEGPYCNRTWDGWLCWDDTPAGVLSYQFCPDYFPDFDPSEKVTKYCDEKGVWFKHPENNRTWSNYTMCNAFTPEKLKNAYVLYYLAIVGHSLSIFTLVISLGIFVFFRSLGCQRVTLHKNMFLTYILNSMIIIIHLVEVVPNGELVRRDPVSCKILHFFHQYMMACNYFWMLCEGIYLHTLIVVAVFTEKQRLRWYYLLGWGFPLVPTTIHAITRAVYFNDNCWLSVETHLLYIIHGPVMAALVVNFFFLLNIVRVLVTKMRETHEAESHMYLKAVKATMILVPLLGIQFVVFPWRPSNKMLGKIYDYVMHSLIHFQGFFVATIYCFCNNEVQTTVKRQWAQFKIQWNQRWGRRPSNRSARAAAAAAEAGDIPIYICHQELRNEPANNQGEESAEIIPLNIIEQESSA
Kind of assay: ratio of IC50 on human calcitonin receptor to IC50 on human amylin receptor. In a few lines: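 Scintillation proximity competition binding on cell membranes at 35 ng/μL with SPA beads, in 50 mM Hepes pH 7.4, 1 mM CaCl2, 5 mM MgCl₂, 0.1% OA, 0.02% Tween20. Incubated 120 min at 25° C with shaking. IC₅₀ from one-site competition fit.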

Assay [2] addresses T2, rat calcitonin receptor (rat, UniProt P32214 25-516).
T2 construct: whole, on cells; Membranes prepared from transiently transfected BHK tk'ts 13 cells; also called rCTR; rat calcitonin (a) receptor
T2 sequence (looked up): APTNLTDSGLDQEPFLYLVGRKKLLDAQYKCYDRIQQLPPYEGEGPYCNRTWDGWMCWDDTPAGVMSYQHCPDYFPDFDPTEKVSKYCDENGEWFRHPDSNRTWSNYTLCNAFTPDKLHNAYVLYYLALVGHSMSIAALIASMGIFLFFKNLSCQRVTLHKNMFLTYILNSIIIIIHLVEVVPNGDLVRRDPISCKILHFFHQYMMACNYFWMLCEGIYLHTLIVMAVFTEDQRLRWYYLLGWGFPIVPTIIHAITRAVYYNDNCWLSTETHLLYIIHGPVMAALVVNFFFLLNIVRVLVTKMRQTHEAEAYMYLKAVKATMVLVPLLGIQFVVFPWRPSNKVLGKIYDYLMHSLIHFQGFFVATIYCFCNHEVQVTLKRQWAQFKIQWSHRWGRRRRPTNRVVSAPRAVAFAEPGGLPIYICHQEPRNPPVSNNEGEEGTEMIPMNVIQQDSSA
Kind of assay: ratio of IC50 on rat calcitonin receptor to IC50 on rat amylin receptor.

Assay [3] addresses T3, rat amylin receptor (rat calcitonin receptor + rat RAMP 3) (rat, UniProt P32214 25-516; Q9JJ73 23-147).
T3 construct: whole, on cells; Membranes prepared from transiently transfected BHK tk'ts 13 cells; also called rAmylin-R; rat amylin 3(a) receptor
T3 sequence (looked up) 1: T2 sequence (looked up)
T3 sequence (looked up) 2: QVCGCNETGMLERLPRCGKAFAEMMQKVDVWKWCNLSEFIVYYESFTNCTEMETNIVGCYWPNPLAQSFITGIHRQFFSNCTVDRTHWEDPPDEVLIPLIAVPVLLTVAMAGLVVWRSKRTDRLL
Kind of assay: SPA competition vs 125I-rat amylin, membranes (Assay VI).

The target of assay [4] is T2, rat calcitonin receptor. Briefly: SPA competition vs 125I-calcitonin, membranes (Assay VIII).

Seven molecules from patent US20140087995A1 (published 2014) can be followed below.

Numbered stars: 1 amine (or outer) side, 2 acyl side, 3 side chain; on linkers, the order of the positions; unused ones are H or OH. Bridge positions count the residues as written; N and C are the ends. Side chains are listed from the residue outwards. Ends that are not written are not given here. * marks the point of attachment. C20 diacid = O=C(O)CCCCCCCCCCCCCCCCCCC(=O)*; γGlu = O=C(O)[C@H](CCC(=O)[*:2])N[*:1]

B1: N^ε1-[(4S)-4-carboxy-4-(19-carboxynonadecanoylamino)butanoyl]-[Glu14,Arg17,Pro21,Pro27,Pro34,Arg35]-h-amylin (peptide)
peptide: K([γGlu-C20 diacid])CNTATCATQRLAEFLRHSSPNFGAIPSSTNVGPRTY-NH2
modifications: disulfide 2-7; N-terminus assumed
SMILES: CC[C@H](C)[C@H](NC(=O)[C@H](C)NC(=O)CNC(=O)[C@H](Cc1ccccc1)NC(=O)[C@H](CC(N)=O)NC(=O)[C@@H]1CCCN1C(=O)[C@H](CO)NC(=O)[C@H](CO)NC(=O)[C@H](Cc1c[nH]cn1)NC(=O)[C@H](CCCNC(=N)N)NC(=O)[C@H](CC(C)C)NC(=O)[C@H](Cc1ccccc1)NC(=O)[C@H](CCC(=O)O)NC(=O)[C@H](C)NC(=O)[C@H](CC(C)C)NC(=O)[C@H](CCCNC(=N)N)NC(=O)[C@H](CCC(N)=O)NC(=O)[C@@H](NC(=O)[C@H](C)NC(=O)[C@@H]1CSSC[C@H](NC(=O)[C@@H](N)CCCCNC(=O)CC[C@H](NC(=O)CCCCCCCCCCCCCCCCCCC(=O)O)C(=O)O)C(=O)N[C@@H](CC(N)=O)C(=O)N[C@@H]([C@@H](C)O)C(=O)N[C@@H](C)C(=O)N[C@@H]([C@@H](C)O)C(=O)N1)[C@@H](C)O)C(=O)N1CCC[C@H]1C(=O)N[C@@H](CO)C(=O)N[C@@H](CO)C(=O)N[C@H](C(=O)N[C@@H](CC(N)=O)C(=O)N[C@H](C(=O)NCC(=O)N1CCC[C@H]1C(=O)N[C@@H](CCCNC(=N)N)C(=O)N[C@H](C(=O)N[C@@H](Cc1ccc(O)cc1)C(N)=O)[C@@H](C)O)C(C)C)[C@@H](C)O
Turning to B1, the “Ratio hCT/hAmylin binding” value in assay [1] turned out to be 38.6. Further, in the assay with rat calcitonin receptor [2], the “Ratio rCT/rAmylin binding” value is 45.5. In addition, the IC50 came to 0.339 nM in assay [3] and 15.4 nM with rat calcitonin receptor [4].

B2: N^ε1-[(4S)-4-carboxy-4-[[(4S)-4-carboxy-4-(19-carboxynonadecanoylamino)butanoyl]amino]butanoyl]-[Arg17,Pro21,Pro27,Pro31,Pro34,Arg35]-h-amylin (peptide)
peptide: K([γGlu-γGlu-C20 diacid])CNTATCATQRLANFLRHSSPNFGAIPSSTPVGPRTY-NH2
modifications: disulfide 2-7; N-terminus assumed
SMILES: CC[C@H](C)[C@H](NC(=O)[C@H](C)NC(=O)CNC(=O)[C@H](Cc1ccccc1)NC(=O)[C@H](CC(N)=O)NC(=O)[C@@H]1CCCN1C(=O)[C@H](CO)NC(=O)[C@H](CO)NC(=O)[C@H](Cc1c[nH]cn1)NC(=O)[C@H](CCCNC(=N)N)NC(=O)[C@H](CC(C)C)NC(=O)[C@H](Cc1ccccc1)NC(=O)[C@H](CC(N)=O)NC(=O)[C@H](C)NC(=O)[C@H](CC(C)C)NC(=O)[C@H](CCCNC(=N)N)NC(=O)[C@H](CCC(N)=O)NC(=O)[C@@H](NC(=O)[C@H](C)NC(=O)[C@@H]1CSSC[C@H](NC(=O)[C@@H](N)CCCCNC(=O)CC[C@H](NC(=O)CC[C@H](NC(=O)CCCCCCCCCCCCCCCCCCC(=O)O)C(=O)O)C(=O)O)C(=O)N[C@@H](CC(N)=O)C(=O)N[C@@H]([C@@H](C)O)C(=O)N[C@@H](C)C(=O)N[C@@H]([C@@H](C)O)C(=O)N1)[C@@H](C)O)C(=O)N1CCC[C@H]1C(=O)N[C@@H](CO)C(=O)N[C@@H](CO)C(=O)N[C@H](C(=O)N1CCC[C@H]1C(=O)N[C@H](C(=O)NCC(=O)N1CCC[C@H]1C(=O)N[C@@H](CCCNC(=N)N)C(=O)N[C@H](C(=O)N[C@@H](Cc1ccc(O)cc1)C(N)=O)[C@@H](C)O)C(C)C)[C@@H](C)O
Turning to B2, the “Ratio hCT/hAmylin binding” value in assay [1] worked out at 48.6. In the assay with rat calcitonin receptor [2], the “Ratio rCT/rAmylin binding” value is 137. Moreover, the figures for the IC50 (in assay [3]; with rat calcitonin receptor [4]) were 0.381 nM and 52.4 nM, respectively.

B3: N^ε1-[(4S)-4-carboxy-4-(19-carboxynonadecanoylamino)butanoyl]-[His14,Arg17,Pro21,Pro27,Pro31,Pro34]-h-amylin (peptide)
peptide: K([γGlu-C20 diacid])CNTATCATQRLAHFLRHSSPNFGAIPSSTPVGPNTY-NH2
modifications: disulfide 2-7; N-terminus assumed
SMILES: CC[C@H](C)[C@H](NC(=O)[C@H](C)NC(=O)CNC(=O)[C@H](Cc1ccccc1)NC(=O)[C@H](CC(N)=O)NC(=O)[C@@H]1CCCN1C(=O)[C@H](CO)NC(=O)[C@H](CO)NC(=O)[C@H](Cc1c[nH]cn1)NC(=O)[C@H](CCCNC(=N)N)NC(=O)[C@H](CC(C)C)NC(=O)[C@H](Cc1ccccc1)NC(=O)[C@H](Cc1c[nH]cn1)NC(=O)[C@H](C)NC(=O)[C@H](CC(C)C)NC(=O)[C@H](CCCNC(=N)N)NC(=O)[C@H](CCC(N)=O)NC(=O)[C@@H](NC(=O)[C@H](C)NC(=O)[C@@H]1CSSC[C@H](NC(=O)[C@@H](N)CCCCNC(=O)CC[C@H](NC(=O)CCCCCCCCCCCCCCCCCCC(=O)O)C(=O)O)C(=O)N[C@@H](CC(N)=O)C(=O)N[C@@H]([C@@H](C)O)C(=O)N[C@@H](C)C(=O)N[C@@H]([C@@H](C)O)C(=O)N1)[C@@H](C)O)C(=O)N1CCC[C@H]1C(=O)N[C@@H](CO)C(=O)N[C@@H](CO)C(=O)N[C@H](C(=O)N1CCC[C@H]1C(=O)N[C@H](C(=O)NCC(=O)N1CCC[C@H]1C(=O)N[C@@H](CC(N)=O)C(=O)N[C@H](C(=O)N[C@@H](Cc1ccc(O)cc1)C(N)=O)[C@@H](C)O)C(C)C)[C@@H](C)O
For B3, the “Ratio hCT/hAmylin binding” value in assay [1] was 24.8. In the assay with rat calcitonin receptor [2], the “Ratio rCT/rAmylin binding” value was determined as 72.4. Moreover, the IC50 turned out to be 0.125 nM in assay [3] and 9.05 nM with rat calcitonin receptor [4].

B4: N^ε1-[(4S)-4-carboxy-4-[[(4S)-4-carboxy-4-(19-carboxynonadecanoylamino)butanoyl]amino]butanoyl]-[Glu14,Arg17,Pro21,Pro27,Arg34,Glu35]-h-amylin (peptide)
peptide: K([γGlu-γGlu-C20 diacid])CNTATCATQRLAEFLRHSSPNFGAIPSSTNVGRETY-NH2
modifications: disulfide 2-7; N-terminus assumed
SMILES: CC[C@H](C)[C@H](NC(=O)[C@H](C)NC(=O)CNC(=O)[C@H](Cc1ccccc1)NC(=O)[C@H](CC(N)=O)NC(=O)[C@@H]1CCCN1C(=O)[C@H](CO)NC(=O)[C@H](CO)NC(=O)[C@H](Cc1c[nH]cn1)NC(=O)[C@H](CCCNC(=N)N)NC(=O)[C@H](CC(C)C)NC(=O)[C@H](Cc1ccccc1)NC(=O)[C@H](CCC(=O)O)NC(=O)[C@H](C)NC(=O)[C@H](CC(C)C)NC(=O)[C@H](CCCNC(=N)N)NC(=O)[C@H](CCC(N)=O)NC(=O)[C@@H](NC(=O)[C@H](C)NC(=O)[C@@H]1CSSC[C@H](NC(=O)[C@@H](N)CCCCNC(=O)CC[C@H](NC(=O)CC[C@H](NC(=O)CCCCCCCCCCCCCCCCCCC(=O)O)C(=O)O)C(=O)O)C(=O)N[C@@H](CC(N)=O)C(=O)N[C@@H]([C@@H](C)O)C(=O)N[C@@H](C)C(=O)N[C@@H]([C@@H](C)O)C(=O)N1)[C@@H](C)O)C(=O)N1CCC[C@H]1C(=O)N[C@@H](CO)C(=O)N[C@@H](CO)C(=O)N[C@H](C(=O)N[C@@H](CC(N)=O)C(=O)N[C@H](C(=O)NCC(=O)N[C@@H](CCCNC(=N)N)C(=O)N[C@@H](CCC(=O)O)C(=O)N[C@H](C(=O)N[C@@H](Cc1ccc(O)cc1)C(N)=O)[C@@H](C)O)C(C)C)[C@@H](C)O
Regarding B4, the “Ratio hCT/hAmylin binding” value in assay [1] turned out to be 14.7. The “Ratio rCT/rAmylin binding” value with rat calcitonin receptor [2] amounted to 158. For the same molecule, the IC50 was found to be 2.86 nM in assay [3] and 452 nM with rat calcitonin receptor [4].

Take K([γGlu-γGlu-C20 diacid])CNTATCATQRLADFLRHSSPNFGAIPSSTNVGPETY-NH2 (disulfide 2-7): the “Ratio hCT/hAmylin binding” value in assay [1] worked out at 49.8. In the assay with rat calcitonin receptor [2], the “Ratio rCT/rAmylin binding” value was determined as 98.5. Also, the IC50 came to 0.324 nM in assay [3] and 31.9 nM with rat calcitonin receptor [4].

Take K([γGlu-γGlu-C20 diacid])CNTATCATQRLADFLRHSSPNFGAIPSSTNVGPRTY-NH2 (disulfide 2-7, also called compound 130): in assay [1], the “Ratio hCT/hAmylin binding” value amounted to 280. For the same molecule, the “Ratio rCT/rAmylin binding” value in the assay with rat calcitonin receptor [2] amounted to 240. For the same molecule, the IC50 is 0.93 nM in assay [3] and 223 nM in the assay with rat calcitonin receptor [4].

On to K([γGlu-C20 diacid])CNTATCATQRLAEFLRHSSPNFGAIPSSTNVGPHTY-NH2 (disulfide 2-7), for which the “Ratio hCT/hAmylin binding” value in assay [1] was found to be 21.2. Moreover, in the assay with rat calcitonin receptor [2], the “Ratio rCT/rAmylin binding” value turned out to be 52.2. Besides, the results for the IC50 (in assay [3]; with rat calcitonin receptor [4]) were 0.104 nM and 5.43 nM, respectively.
